# Experimental data reported in US7655453B2, “Recombinant Candida rugosa lipases” (Academia Sinica, priority 2001, dated 2010).
# Substrate: CCCCC/C=C\C/C=C\CCCCCCCC(=O)O[C@H]1CC[C@@]2(C)C(=CC[C@H]3[C@@H]4CC[C@H]([C@H](C)CCCC(C)C)[C@@]4(C)CC[C@@H]32)C1
# Assay: purified protein, by the assay type
# Type: biochemical, Candida rugosa
# Conditions: other: 37° C., pH 7.0, Trx-LIP4 29 nM, average of three independent experiments
# Text: Construction of expression vectors The E. coli expression vectors pET23a-LIP4-S19 and pET23a-trx-LIP4-S19 were constructed as described in Tang et al. (2000) Protein Exp. Purif. 20: 308-313. Open-reading frames of LIP1, LIP2, LIP3, and LIP5 without the leader sequence were obtained by reverse transcription-polymerase chain reaction (RT-PCR). See Longhi et al. (1992) Biochim. Biophy. […] The chimeric DNA sequences were constructed by replacing the SphI(184)-BstXI(304) restriction DNA fragment of LIP4 with the corresponding fragments of LIP1, LIP2, LIP3, or LIP5, respectively. The resulting sequences encode mature chimeric C. rugosa lipases, denoted as TrX-LIP4/lid1, TrX-LIP4/lid2, TrX-LIP4/lid3, and TrX-LIP4/lid5, and were confirmed by DNA sequencing.
# Preparation of recombinant LIP4 from E. coli. E. coli strain AD494(DE3) (Novagen, Milwaukee, Wis.) harboring recombinant plasmid was grown overnight at 37° C. in Luria-Bertani (LB) broth supplemented with 50 μg/mL ampicillin and 15 μg/mL kanamycin. The cells were then diluted 20-fold into fresh medium and incubated with shaking at 25° C. After adding IPTG to give a final concentration of 0.05 mM, the cells were incubated at 10° C. until OD600 reached 1.0.
# Purification of recombinant LIP4. After induction, the AD494(DE3) transformants were harvested by centrifugation at 4000 g and 4° C. for 10 min. The cell pellet was resuspended in TE buffer (20 mM Tris-HCl and 2.5 mM EDTA, pH 8.0). The cells were disrupted with a sonicator, and the soluble fractions of the cell lysates were then collected by centrifugation at 15,000 g at 4° C. for 30 min. The soluble fractions were concentrated by ultrafiltration on a 10,000 molecular weight cut-off membrane. These samples were then applied onto a DEAE-Sepharose CL-6B (Pharmacia Biotech) column equilibrated with TE buffer. Recombinant lipases were eluted using a linear gradient of 0 to 100 mM (NH4)2SO4 over 5 column volumes.
# The eluted proteins were then applied to a Butyl-Sepharose 4 Fast Flow (Pharmacia Biotech) hydrophobic interaction column. The column was washed with 5 bed volumes of TE buffer plus 1 mM and then 4 mM CHAPS. Bound proteins were then eluted with 5 bed volumes of TE buffer containing 30 mM CHAPS. The eluted samples were dialyzed against TE buffer and stored in a storage buffer (60 mM KCl, 10 mM Tris-HCl, 1.25 mM EDTA, 1% Triton X-100, and 17% glycerol, pH 7.5) at −20° C. Protein concentrations in the fractions were measured with the Bio-Rad assay kit, and esterase activity was determined using p-nitrophenyl butyrate as a substrate. The molecular masses of the purified recombinant lipases and a commercial lipase (Lipase Type VII, Sigma L1754) were determined by SDS-PAGE analysis. […]
protein,measurement,value
"Candida rugosa lipase 4 (LIP4), recombinant, E. coli thioredoxin fused to the N-terminal (Trx-LIP4) (Diutina rugosa) (protein) SMNSRGPAGRLGSVPTATLANGDTITGLNAIINEAFLGIPFAQPPVGNLRFKPPVPYSASLNGQKFTSYGPSCMQMNPLGNWDSSLPKAAINSLMQSKLFQAVLPNGEDCLTINVVRPSGTKPGANLPVMVWIFGGGFEVGGSSLFPPAQMITASVLMGKPIIHVSMNYRVASWGFLAGPDIKAEGSGNAGLHDQRLGLQWVADNIAGFGGDPSKVTIFGESAGSMSVMCQLLWNDGDNTYNGKPLFRAAIMQSGAMVPSDPVDGPYGTQIYDQVVASAGCGSASDKLACLRSISNDKLFQATSDTPGALAYPSLRLSFLPRPDGTFITDDMFKLVRDGKCANVPVIIGDQNDEGTVFALSSLNVTTDAQARQYFKESFIHASDAEIDTLMAAYPSDITQGSPFDTGIFNAITPQFKRIAAVLGDLAFTLPRRYFLNHFQGGTKYSFLSKQLSGLPVIGTHHANDIVWQDFLVSHSSAVYNNAFIAFANDLDPNKAGLLVNWPKYTSSSQSGNNLLQINALGLYTGKDNFRTAGYDALFTNPSSFFV",Km,104 ± 10 10^−3 mM
same,Vmax,2.9 µmol/min/mg
same,kcat,3.37 ± 0.135 s⁻¹
same,kcat/Km,32300 ± 2320 M⁻¹ s⁻¹
